Where no end group is shown, it is not given here. [ ]: non-standard residue; d: D form. pS = N[C@@H](COP(=O)(O)O)C(=O)O
Target: recombinant human PP1α (residues 7–300) (human, UniProt P62136 7-300)
Test: SPR

Chain of recombinant human PP1α (residues 7–300) (P62136 7-300): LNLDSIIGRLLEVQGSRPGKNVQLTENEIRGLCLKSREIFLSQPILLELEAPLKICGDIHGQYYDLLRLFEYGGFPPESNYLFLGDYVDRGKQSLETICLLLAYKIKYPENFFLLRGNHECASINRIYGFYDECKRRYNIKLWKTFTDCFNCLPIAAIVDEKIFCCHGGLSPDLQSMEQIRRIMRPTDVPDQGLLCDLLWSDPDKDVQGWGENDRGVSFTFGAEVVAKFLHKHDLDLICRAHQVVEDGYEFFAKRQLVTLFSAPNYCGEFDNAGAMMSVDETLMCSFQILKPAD

Binder: HIPR[pS]PYKFPSSPLRKKCCFHCQVCFITK (cysteine pairing not given here) [pRb-Tat hybrid peptide]
- koff: 0.00394 s⁻¹
